# Test results published in patent US20120058906A1 (published 2012).
# T1: rHuman Erythropoietin R/Fc Chimera, CF (R&D Systems Cat#963-ER) (human, UniProt P19235 25-250)
# T1 construct: Bought protein; also called EPOR; EPO R/Fc; Fc part of the bought chimera not given
# T1 sequence: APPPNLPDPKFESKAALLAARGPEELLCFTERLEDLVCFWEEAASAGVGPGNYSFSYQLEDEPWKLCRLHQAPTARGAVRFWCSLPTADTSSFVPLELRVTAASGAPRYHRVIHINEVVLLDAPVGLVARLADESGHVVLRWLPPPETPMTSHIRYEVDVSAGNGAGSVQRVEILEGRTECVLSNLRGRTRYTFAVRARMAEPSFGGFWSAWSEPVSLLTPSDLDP
# B1: Fab VH1-46_IGHD2-15*01_IGHJ2*01 & L2_IGKJ1*01 (Fab, V domains shown)
# VH: QVQLVQSGAEVKKPGASVKVSCKASGYTFTSYYMHWVRQAPGQGLEWMGIINPSGGSTSYAQKFQGRVTMTRDTSTSTVYMELSSLRSEDTAVYYCAREGYCSGGSCYSYWYFDLWGRGTLVTVSS
# VL: not shown
# B2: Fab VH1-46_IGHD7-27*01_IGHJ2*01 & A27_IGKJ1*01 (Fab, V domains shown)
# VH: QVQLVQSGAEVKKPGASVKVSCKASGYTFTSYYMHWVRQAPGQGLEWMGIINPSGGSTSYAQKFQGRVTMTRDTSTSTVYMELSSLRSEDTAVYYCARANWGYWYFDLWGRGTLVTVSS
# VL: not shown
# notes: Fab from E. coli; VH joined to the CH1 (Flag and His tags) of Plasmid A, VL to the kappa CL of Plasmid C
# B3: Fab VH2-5_IGHD7-27*01_IGHJ2*01 & L2_IGKJ1*01 (Fab, V domains shown)
# VH: QITLKESGPTLVKPTQTLTLTCTFSGFSLSTSGVGVGWIRQPPGKALEWLALIYWNDDKRYSPSLKSRLTITKDTSKNQVVLTMTNMDPVDTATYYCAHRPNWGYWYFDLWGRGTLVTVSS
# VL: not shown
# B4: Fab VH1-69_IGHD1-1*01_IGHJ6*01 & A17_IGKJ1*01 (Fab, V domains shown)
# VH: QVQLVQSGAEVKKPGSSVKVSCKASGGTFSSYAISWVRQAPGQGLEWMGGIIPIFGTANYAQKFQGRVTITADKSTSTAYMELSSLRSEDTAVYYCARGYNWNDDYYYYYGMDVWGQGTTVTVSS
# VL: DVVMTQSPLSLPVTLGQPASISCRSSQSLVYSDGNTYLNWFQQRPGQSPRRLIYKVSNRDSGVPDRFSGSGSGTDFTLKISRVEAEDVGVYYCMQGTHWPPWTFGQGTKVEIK
# notes: as for B2
# B5: Fab VH1-46_IGHD6-13*01_IGHJ4*01 & L2_IGKJ1*01 (Fab, V domains shown)
# VH: QVQLVQSGAEVKKPGASVKVSCKASGYTFTSYYMHWVRQAPGQGLEWMGIINPSGGSTSYAQKFQGRVTMTRDTSTSTVYMELSSLRSEDTAVYYCAREGYSSSWYDYFDYWGQGTLVTVSS
# VL: not shown
# How the values were obtained:
# [1] = target: T2, rHuman EGF R/Fc Chimera, CF (R&D Systems Cat#344-ER) (human, UniProt P00533 25-645); experiment: MSD ECL multi-spot assay, antigen spotted on plate, Fab 0.25 uM; blank spot 3693
# T2 construct: Bought protein; also called epidermal growth factor receptor; Fc part of the bought chimera not given
# [2] = target: T3, rHuman P-Cadherin/Fc Chimera, CF (R&D Systems Cat#861-PC) (human, UniProt P22223 108-654); experiment: as above
# T3 construct: Bought protein; also called CDH3; Fc part of the bought chimera not given
# [3] = target: T4, rHuman IGF-1 sR (IGF-1 sR), CF (R&D Systems Cat#391-GR) (human, UniProt P08069 31-932); experiment: as above
# T4 construct: Bought soluble receptor; also called insulin-like growth factor-1 soluble receptor; IGF-R1
# [4] = target: T5, Recombinant Human DLL4 (R&D Systems Cat#1506-D4/CF) (human, UniProt Q9NR61 27-524); experiment: as above
# T5 construct: Bought protein; also called delta-like protein 4; rHuman DLL4
# [5] = target: T1, rHuman Erythropoietin R/Fc Chimera, CF …; experiment: as above
# [6] = target: T2, rHuman EGF R/Fc Chimera, CF (R&D …); experiment: MSD ECL multi-spot assay, antigen spotted on plate, Fab 0.36 uM; blank spot 928;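 also: blank spot per well as comparator with Hit at signal to blank ratio of 4 or more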
# [7] = target: T6, rHuman HGF R/c-MET/Fc Chimera, CF (R&D Systems Cat#358-MT/CF) (human, UniProt P08581 25-932); experiment: as above
# T6 construct: Bought protein; also called HGF R/Fc; hepatocyte growth factor receptor; Fc part of the bought chimera not given
# [8] = target: T3, rHuman P-Cadherin/Fc Chimera, CF (R&D …); experiment: as above
# [9] = target: T7, rHuman CD44/Fc Chimera, CF (R&D Systems Cat#3660-CD) (human, UniProt P16070 21-220); experiment: as above
# T7 construct: Bought protein; Fc part of the bought chimera not given
# [10] = target: T4, rHuman IGF-1 sR (IGF-1 sR), CF (R&D …); experiment: as above
# [11] = target: T8, rHuman ErbB2/Fc Chimera, CF (R&D Systems Cat#1129-ER) (human, UniProt P04626 23-652); experiment: as above
# T8 construct: Bought protein; also called HER2/neu; human epidermal growth factor 2 receptor; Fc part of the bought chimera not given
# [12] = target: T5, Recombinant Human DLL4 (R&D Systems …); experiment: as above
# [13] = target: T1, rHuman Erythropoietin R/Fc Chimera, CF …; experiment: as above
# [14] = target: T9, rHuman Notch-1/Fc Chimera, CF (R&D Systems Cat#3647-TK) (human, UniProt P46531 19-526); experiment: as above
# T9 construct: Bought protein; Fc part of the bought chimera not given
# [15] = target: T2, rHuman EGF R/Fc Chimera, CF (R&D …); experiment: MSD ECL multi-spot assay, antigen spotted on plate, Fab 0.03 uM; blank spot 373;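 also: blank spot per well as comparator with Hit at signal to blank ratio of 4 or more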
# [16] = target: T6, rHuman HGF R/c-MET/Fc Chimera, CF (R&D …); experiment: as above
# [17] = target: T3, rHuman P-Cadherin/Fc Chimera, CF (R&D …); experiment: as above
# [18] = target: T7, rHuman CD44/Fc Chimera, CF (R&D Systems …); experiment: as above
# [19] = target: T4, rHuman IGF-1 sR (IGF-1 sR), CF (R&D …); experiment: as above
# [20] = target: T8, rHuman ErbB2/Fc Chimera, CF (R&D …); experiment: as above
# [21] = target: T5, Recombinant Human DLL4 (R&D Systems …); experiment: as above
# [22] = target: T1, rHuman Erythropoietin R/Fc Chimera, CF …; experiment: as above
# [23] = target: T9, rHuman Notch-1/Fc Chimera, CF (R&D …); experiment: as above
# [24] = target: T2, rHuman EGF R/Fc Chimera, CF (R&D …); experiment: MSD ECL multi-spot assay, antigen spotted on plate, Fab 0.65 uM; blank spot 441
# [25] = target: T6, rHuman HGF R/c-MET/Fc Chimera, CF (R&D …); experiment: as above
# [26] = target: T3, rHuman P-Cadherin/Fc Chimera, CF (R&D …); experiment: as above
# [27] = target: T7, rHuman CD44/Fc Chimera, CF (R&D Systems …); experiment: as above
# [28] = target: T4, rHuman IGF-1 sR (IGF-1 sR), CF (R&D …); experiment: as above
# [29] = target: T8, rHuman ErbB2/Fc Chimera, CF (R&D …); experiment: as above
# [30] = target: T5, Recombinant Human DLL4 (R&D Systems …); experiment: as above
# [31] = target: T2, rHuman EGF R/Fc Chimera, CF (R&D …); experiment: MSD ECL multi-spot assay, antigen spotted on plate, Fab 1.19 uM; blank spot 11543
# [32] = target: T3, rHuman P-Cadherin/Fc Chimera, CF (R&D …); experiment: as above
# [33] = target: T4, rHuman IGF-1 sR (IGF-1 sR), CF (R&D …); experiment: as above
# [34] = target: T5, Recombinant Human DLL4 (R&D Systems …); experiment: as above
# [35] = target: T1, rHuman Erythropoietin R/Fc Chimera, CF …; experiment: as above
# [36] = target: T9, rHuman Notch-1/Fc Chimera, CF (R&D …); experiment: as above
binder,measurement,setting,value
B1,ECL signal,[1],88000
same,ECL signal,[2],16100
same,ECL signal,[3],4930
same,ECL signal,[4],14700
same,ECL signal,[5],30100
B2,ECL signal,[6],1400
same,ECL signal,[7],1220
same,ECL signal,[8],1800
same,ECL signal,[9],1540
same,ECL signal,[10],1080
same,ECL signal,[11],1470
same,ECL signal,[12],9080
same,ECL signal,[13],2430
same,ECL signal,[14],1920
B3,ECL signal,[15],381
same,ECL signal,[16],311
same,ECL signal,[17],352
same,ECL signal,[18],421
same,ECL signal,[19],344
same,ECL signal,[20],2560
same,ECL signal,[21],476
same,ECL signal,[22],492
same,ECL signal,[23],563
B4,ECL signal,[24],662
same,ECL signal,[25],437
same,ECL signal,[26],695
same,ECL signal,[27],797
same,ECL signal,[28],656
same,ECL signal,[29],2940
same,ECL signal,[30],849
B5,ECL signal,[31],32000
same,ECL signal,[32],34600
same,ECL signal,[33],14100
same,ECL signal,[34],39600
same,ECL signal,[35],141000
same,ECL signal,[36],41700
